From US8796201B2 (The Board of Trustees of the Leland Stanford Junior …, priority 2002, dated 2014) come the findings set out here.

Data set [1] is described as follows: Double-blind crossover gluten challenge: daily symptom questionnaire. Format: in vivo, human (Celiac Sprue patients). The settings on record: PEP Stage, 20 patients. The source says: Subjects and protocols: This study was approved by the Institutional Review Board of the Palo Alto Medical Foundation in Palo Alto, Calif., and all participants in the study were counseled regarding risks and signed an informed consent document. 22 patients were recruited who were in symptomatic remission on a gluten-free diet. Two patients dropped out of the study, one near the end of the first stage and the other prior to the second stage. The 20 patients who completed the study included 7 men and […] aged 21 to 78 (mean age 49). The time since diagnosis for the 20 patients ranged from 3 months to 18 years (mean 6 years). […] The serum anti-gliadin IgA antibodies and anti-tissue transglutaminase IgA and IgG antibodies were measured by an enzyme linked immunosorbent assay (ELISA) kit (INOVA Diagnostics, Inc., San Diego, Calif.). […] Total serum IgA levels were determined by an Integra instrument (Roche) (normal <81 mg/dl). […] The 25 g D-xylose 5-hour urine excretion test and the 72-hour quantitative fecal fat test were measured at baseline and on Day 15. […] For the 72 h quantitative fecal fat test, patients were instructed to consume a diet containing 80-100 g fat per day during the collection. The fecal fat excretion was determined by a gravimetric method. […]

The test system of data set [2] is PQPQLPYPQPQLP
In words: Acceleration of brush border mediated digestion by exogenous endoproteases. Format: biochemical, wheat. The method, then: FIG. 3. Dose dependent acceleration of brush border mediated digestion by exogenous endoproteases. […] This peptide was digested with 27 ng/μl brush border membranes, either alone, with increasing amounts of exogenous prolyl endopeptidase (PEP, specific activity 28 μU/pg) from Flavobacterium meningosepticum (US Biological, MA), or with additional elastase (E-1250, Sigma, Mo.), bromelain (B-5144, Sigma, Mo.) or papain (P-5306, Sigma, Mo.) (12). After one hour, the fraction of remaining (SEQ ID NO:4) […] (compared to the initial amount at t=0 min) was analyzed and quantified as in FIG. 1.
Alerted by the high proline content as a hallmark of most immunogenic gliadin peptides, a proline-specific endopeptidase was tested for the generation of new, free peptide termini. A literature search on available proteases led to the identification of prolyl endopeptidase (PEP) from Flavobacterium meningosepticum, which is specific for the C-terminal cleavage of prolines and readily available from recombinant sources (Yoshimoto et al. (1991) J. Biochem. 110, 873-8). The stable (SEQ ID NO:4) […] intermediate was digested with BBM in the presence of exogenous PEP. […] As little as 3.5 pg PEP/27 ng BBM protein was sufficient to double the extent of proteolysis of this gliadin fragment compared to incubation with BBM alone. In comparison, other commonly used proteases like papain, bromelain or porcine elastase were much less efficient, requiring 30-fold (papain) or 3000-fold (bromelain, elastase) higher amounts of enzyme compared to PEP to give similar results. Their proteolysis was restricted to the cleavage of the Gln^4-Leu^5 and/or Gln^11-Leu^12 bonds.
A similar preferential cleavage was found for (SEQ ID NO:1) QLQPFP^↓QPQLPY. This is in agreement with the preference of this prolyl endopeptidase for a second proline in the S2′ position (Bordusa and Jakubke (1998) Bioorg. Med. Chem. 6, 1775-80). Based on this P^↓XP motif and on the present data, up to 16 new, major cleavage sites can be predicted in the α2-gliadin sequence, a major source of immunodominant epitopes identified thus far upon PEP treatment. All of them are located in the critical N-terminal part. The internal cleavage by PEP can be expected to generate additional (otherwise inaccessible) substrates for DPP IV and DCP thereby complementing the natural assimilation process of gliadins by the BBM. Thus, the specificity of prolyl endopeptidase is ideally suited for detoxification of persistent immunoactive gliadin peptides in Celiac Sprue.

B1: PEP: prolyl endopeptidase; Examples 1-2: from Flavobacterium meningosepticum (US Biological); Example 11: source not stated (protein, UniProt P27028 21-705, looked up)
Prolyl endopeptidase: QNSNVLKYPETKKVSHTDTYFGTQVSDPYRWLEDDRAEDTKAWVQQEVKFTQDYLAQIPFRDQLKKQLMDIWNYEKISAPFKKGKYTYFSKNDGLQAQSVLYRKDAAGKTEVFLDPNKFSEKGTTSLASVSFNKKGTLVAYSISEGGSDWNKIIILDAETKKQLDETLLDVKFSGISWLGDEGFFYSSYDKPKEGSVLSGMTDKHKVYFHKLGTKQSQDELIIGGDKFPRRYIGAYVTDDQRYLVVSAANATNGNELYIKDLKNKTDFIPIITGFDSNVNVADTDGDTLYLFTDKDAPNKRLVKTTIQNPKAETWKDVIAETSEPLEINTGGGYFFATYMKDAIDQVKQYDKNGKLVRAIKLPGSGNASGFGGEKTEKDLYYSFTNYITPPTIFKYNVTTGNSEVYQKPKVKFNPENYVSEQVFYTSSDGTKIPMMISYKKGLKKDGKNPTILYSYGGFNISLQPAFSVVNAIWMENGGIYAVPNIRGGGEYGKKWHDAGTKMQKKNVFNDFIAAGEYLQKNGYTSKEYMALSGRSNGGLLVGATMTMRPDLAKVAFPGVGVLDMLRYNKFTAGAGWAYDYGTAEDSKEMFEYLKSYSPVHNVKAGTCYPSTMVITSDHDDRVVPAHSFKFGSELQAKQSCKNPILIRIETNAGHGAGRSTEQVVAENADLLSFALYEMGIKSLK
On to B1, for which the “average Total Stage Symptom Score (sum of the 14 daily symptom scores)” value in data set [1] is 23 (range 4 to 82). Also, in data set [2], the “preferred cleavage bond in PQPQLPYPQPQLP” value was “Pro^8-Gln^9 and to a lesser extent the Pro^6-Tyr^7 bond”. In addition, the “amount sufficient to double the extent of proteolysis of PQPQLPYPQPQLP compared to BBM alone” value in data set [2] (27 ng/μl BBM, one hour) is recorded as 3.5 pg PEP/27 ng BBM protein.
